Results reported in publication PMC5297857.

Target: soluble form of human TNFα (aa 77–233), wild-type (human)
Assay: crystal structure; purified TNFα and certolizumab Fab mixed in a 1:1 molar ratio, complex isolated by size exclusion chromatography (20 mM Tris pH 8.0, 300 mM NaCl); hanging-drop crystals at 20 °C; 2.89 Å, three copies in the asymmetric unit

In the case of “soluble form of human TNFα (aa 77–233), wild-type (ligand)”, the stoichiometry N is reported as 3.
